Here are results for 15 sequences from the supplement of paper PMC12455559.

The data set in a line: purified protein yield per well (BCA); higher = higher soluble expression. The gist of the method:
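The measured quantity is purified protein yield per well, determined with the Pierce Rapid Gold BCA kit. Anything below 25 ug (0.1 mg/mL) lies under the detection threshold. Enzymes were expressed in E. coli C41(DE3) in 2 mL autoinduction cultures with 100 µg/mL kanamycin at 37 °C for 2 h, then 18 °C for 40 h, and purified on an OT-2 robot using Ni-charged magnetic beads and SUMO protease release.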
Regarding “AETSYENGPDPTSSSIEAVKGPFEVSTQTVSSYSVRDFGGGTIYYPASSVEGGYGAVAISPGYTARKSSIAWLGSRLASQGFVVFTIDTKTTSDRPASRGDQLLASLDYLTENSRIKDQVDPNRLAVMGHSMGGGGVFEAAKDRPELQGAIAMTPWNTNKTFSEVSTPTLIFGAQDDTVAPVSRHSIPLYSGLPSTTPRTYLELRGASHFAPNRSNTTIAAQSIAWLKAFLDEDRRYDQFLCPGPTTGIDLSDVRTSCPF [DP036]”, the “purified protein yield per well” value was below 25 µg.

On to “MREHEDAMSGGRMPSGARPPRLIGLAVAAIAAVVTMIAAMLAVGPVSAQPAPTAVTPHSTQRGPDPTLAMIEASRGPFATAQQGVAPGNGFNGGEIYYPTDTSQGTWGALVIIPGYTARCVNQPAPEEAWMGPWLSSFGFVVLCMETNSPNDFDTARGQEALAALNWLTTASPVRGEVDPNRLSVMGHSMGGGGVVYAVEHQPSLRAGIGLAPFSPSQNMAGDKVPTLILGGQNDSTVTPSYLSGLYATMPAATQSAFAQIAGAGHGFYTSPNNVMMKLAIPWLKVFVDSDNRYEQFLCPTLPDPSQISIYRSKCPYVPPGGGPTSTTTTPPPPAGACQAVYQPQNSWPGGFQGLVTVTAGSSPVSGWTVTWALSGGQAITQLWSGNLTTSGSAVTVKNASYNGSLAAGASATFGFTATGAASTPTLTCTSP [ESM146]”, for which the “purified protein yield per well” value is below 25 µg. For “MKSSGSAFRDPSGTVPTGRPAGRSWRYALALVAATTTLVALTVAGGTQQATGADNPYQRGPDPTRASVSANRGTFATAQVSVPAGNGFGGGVIYYPTDTSQGRFGAIAVVPGYTATWAAEGAWMGHWLASFGFVVIGIDTNSRNDWDNARGTQLLAALDYLTQRSSVRDRVDASRTSVMGHSMGGGGAANASLQRPTLKTAIGLAPASFSQNLTTTKVPTMLLAGQYDGTVTPSSVLNLYNGIPAGVEKAYLELTGAGHGFPTSNNPTMMRTIIPWFKIFVDSDTRYTQFLCPLADTNGIRTYQSTCPLVPSTPPTSTSTTTTTTGVPTGSTYVGQQSGRCLDVTGQSQTNGAKAQLWDCNGQSNQKWTLTSAAELRVYGGKCLDLPSNSAAGTQAQIWDCNGQSNQKWTHGTDGSIRHTQTGLCLDANGQGTANGTQVNSWNCNGQTNQKWTRR [TEP008]”, the “purified protein yield per well” value is below 25 µg. As to “DGEYRVLTYTDFPDAPEFGDGTIYYPVGTPGPIGGVAIVPGFTEEQRAVAWLGPRLASHGYAVLIFDTNDRRDPAQVRADELMGAVRVLRAENSRRGSPLFGRIDASKMAIMGHSMGGGGALLAADAHSDQVSAVITFAPYEPTASFSEITVPTLIFGGSADPIAPVADHAWRHFNSIPAST [TEP123]”, the “purified protein yield per well” value was below 25 µg. To “ADNPFERGPDPSESSIEAYRGAYSVSEQSVSRWVSGFGGGTIHYPTTRSDGTFGAVVVSPGYTGTESSISWLGPRLASQGFVVLTMVTNSIYDYPDSRARQLQAALDYLTSSSSGVADRIDPDRLALMGHSMGGGGTLRAVSENPDIKAAIPMTPWHTDKTWREVTTPTLIFGAENDTVAPHYSHAEPFYDSLPSSLEKVYLELDGASHFAPNYSNTTIAKYSISWLKRFVDDDTRYSQFLCPGPSFWDGDVQTYESTCDF [TEP197]” belongs below 25 µg; to “MRDGPKFGTATVYYPENAQAPYASLLIVTGFVHPESAMKAWGPFLASHGIVTLTIGTNKLKDDPFKRRDALLDAVRSLKAEHLRKDSPLWHKLALDRIGVAGWSMGGGGAQLAAAADPSLRAVIGFCPWLPKANFEHPVPSLIIAGTLDSIANVFLNARAHYAGISETTPKLIIEIPYGGHWIANDPANANGAIGQIGLSWLKVYLEGDTRYRQFLLTPPISGGYFRHNLE [TEP077]”, below 25 µg; to “GPYQVAYYSSYPPVPEFSAATIYFPANKGEDFAGVAISPGFVESQENMSWWGRHLASHGFAVLTLDTNELRDNPSLRADALMAAIEVLRNEGDRMGSTLRGKILKDRMAIMGHSMGGGGTLIAANAHSADLKAAIPFTPWQPDGDFSTISIPTLVIAGENDRIAVMDIHGASLSTIHHEGDEGV [TEP125]”, below 25 µg. “MASITNPGPYSVSLLIEGVDDIRNGPDYDGATIYYPSNGVPPYAGIAIIPGYCGVETDIENWGPFYASHGIIAITLGTNNPCADWPAVRALALLDAIETIKSENTREGSPLNGKVDVNSFAVSGWSMGGGGAELAASIDPSLKAVVGLCPWLDLNGFETSDLIHDVPVLIFTGQNDDIAGSAEYGYMHYTNTPNSTDKLYFEIENEGHEAANAPNMAGGEKGIYALSWLTI [TEP051]”: the “purified protein yield per well” value was below 25 µg. Take “IENGPAPTFSSVQADGPFAVSTQTVRGSGFGGGTVYSPNTAGKYAVVAVCPGFTATQTSIALISRRLATHGFVVVTINTNTVYDYPASRANQLLAALRTVTALTTGPVAGKMDTSRQAVSGWSMGGGGAMLAAGMTPGLKAGVAFAPWSLTNNVGSSAVPMAYLAGTADTVAPASVHSSVFYNATPATTKKLIGVIQGADHYFPGTASQPASYTQVAWMKRFLDGDTRYSQFLNGDTRFATFRSTGPF [ESM109]”: the “purified protein yield per well” value was below 25 µg. To “QTPQAPTAASLNATSGPLSVSTQSVSSLSARGFGGGTVYYPTTAGRYGAVAISPGFTATQSSVAWLGRRLASHGLVVITINTNSTLDQPASRATQLMAALTYVTSASGTTVQSRVDPQRLAVAGHSMGGGGALIAARDNPTLKASLPLTPWNTTTNFSGIRVPTLIVGADGDTVASVTAHARPFYASLPSNTFKAYAELNSASHFTPNSANTPIGRYGVTWLKRFVDNDSRYSPFLCGAEHQAYATAQVFDRYQQNCPY [ESM188]” belongs below 25 µg; to “MRSTSTTPTASSVSGAGAFAISSATVGGGNGFGSATIYFPTDTSQGTFGGLAVSPGFTETQSALRWWAQRLATHGFVVINISTNSTFDNPSSRATQLQNALNYLVNTSSVRTRVDRTRLGVSGHSMGGGGTLEAARNNTALQAAIPLMPWDQTKSFPGILTPTMIVAGQNDTVARPSSHAIPFYNSIPDSSEKVYLELAGAGHNASNSTNPTISLFGVSWAKRYIDNGTRYEQFICPGGGSGISSYRQT [ESM152]”, below 25 µg. For the sequence “VQIGPAPTSAALNKDGTFSVSSTSVSSLSARGFGGGTIYYPTTAGQYGVIAVCPGYTGTSSSISWFARRLATHGFVTIAMNTTTTLDQPDSRATQLAAALKCVLSNSTVKSRIRSTDRGVAGHSMGGGGTLIASQSDSSLRVGIPMTPWNLSTNFSAVKVPQMIFGADGDTIAPYASHARPFYNSINKTQKAYGLLKSATHFTPNSTDQRIGRYGVAFAKRFVDGDTRYSAFLCGAEHSSYATSSKFATYLSNCPY [ESM154]”, the “purified protein yield per well” value is below 25 µg. Take “AADNPYERGPDPTEQSVTAIRGPFNVAQTDVSRLAVTGFGGGTIYYPTDTSQGTFGAIAISPGFTAYWSSLSWLGPRLASQGFVVFGIETNTTLDQPAQRGQQLLAALDYLTQRSSVRSRVDASRLAVAGHSMGGGGTLEAAKSRTSLKAAIPIAPWNLDKTWPEVRTPTLIIGGELDSIAPVATHSKPFYSSLSNAPEKAYLELDNASHFFPQISNTTMAKYMISWMKRFIDNDTRYDQFLCPPPRAIGDISDYQDTCPHS [TEP031]”: the “purified protein yield per well” value is below 25 µg. To “MGSNPYQRGPDPTTSSLEASRGPFSVASFTVSRPSGYGAGTVYYPTNAGGKVGAIAIVPGYTARQSSINWWGPRLASHGFVVITIDTNSTLDQPSSRSSQQMAALRQVVSLSGTSSSPIYNKVDTSRLGVMGWSMGGGGSLISARNNPSLKAAAPQAPWNSSKNFSSVTVPTLIIACENDTIAPVNSHALPFYNSMSRNPKQYLEINGGSHSCANSGNSNQALIGKKGVAWMKRFMDNDTRYSSFACSNPNSSSVSDFRTENCSAS [TEP184]” belongs below 25 µg; to “RDLPPSAPLAANPYERGPAPTVASIEATLGPFATAQTTVAAGSVSGFGGGTIYYPTSTAEGTFGAVAISPGFTARQTSVAWLGPRLASQGFVVITIDTRSVYDQPASRGTQLLAALDYLTNTSTVRTRIDRNRLAVMGHSMGGGGSLSAASTRPALQAAIPLTGWHTQKSWSSVRVPTLVIGAENDTVAPVSSHSEPFYTSLPATLDKAYLELNAASHSAPTSSNVTVAKYSISWLKRFVDDDTRYEQFLCPAPRGSAIEEYRDTCPHS [TEP042]”, below 25 µg.
